Laboratory results as given in US20030228627A1, “Assay for p53 function in cells” (priority 2002, published 2003).

Molecular target: Full-length human histidine-tagged p300 (human) (UniProt Q09472)
Test: cell-based or functional assay

Full-length human histidine-tagged p300 (human), sequence (Q09472 2-2414): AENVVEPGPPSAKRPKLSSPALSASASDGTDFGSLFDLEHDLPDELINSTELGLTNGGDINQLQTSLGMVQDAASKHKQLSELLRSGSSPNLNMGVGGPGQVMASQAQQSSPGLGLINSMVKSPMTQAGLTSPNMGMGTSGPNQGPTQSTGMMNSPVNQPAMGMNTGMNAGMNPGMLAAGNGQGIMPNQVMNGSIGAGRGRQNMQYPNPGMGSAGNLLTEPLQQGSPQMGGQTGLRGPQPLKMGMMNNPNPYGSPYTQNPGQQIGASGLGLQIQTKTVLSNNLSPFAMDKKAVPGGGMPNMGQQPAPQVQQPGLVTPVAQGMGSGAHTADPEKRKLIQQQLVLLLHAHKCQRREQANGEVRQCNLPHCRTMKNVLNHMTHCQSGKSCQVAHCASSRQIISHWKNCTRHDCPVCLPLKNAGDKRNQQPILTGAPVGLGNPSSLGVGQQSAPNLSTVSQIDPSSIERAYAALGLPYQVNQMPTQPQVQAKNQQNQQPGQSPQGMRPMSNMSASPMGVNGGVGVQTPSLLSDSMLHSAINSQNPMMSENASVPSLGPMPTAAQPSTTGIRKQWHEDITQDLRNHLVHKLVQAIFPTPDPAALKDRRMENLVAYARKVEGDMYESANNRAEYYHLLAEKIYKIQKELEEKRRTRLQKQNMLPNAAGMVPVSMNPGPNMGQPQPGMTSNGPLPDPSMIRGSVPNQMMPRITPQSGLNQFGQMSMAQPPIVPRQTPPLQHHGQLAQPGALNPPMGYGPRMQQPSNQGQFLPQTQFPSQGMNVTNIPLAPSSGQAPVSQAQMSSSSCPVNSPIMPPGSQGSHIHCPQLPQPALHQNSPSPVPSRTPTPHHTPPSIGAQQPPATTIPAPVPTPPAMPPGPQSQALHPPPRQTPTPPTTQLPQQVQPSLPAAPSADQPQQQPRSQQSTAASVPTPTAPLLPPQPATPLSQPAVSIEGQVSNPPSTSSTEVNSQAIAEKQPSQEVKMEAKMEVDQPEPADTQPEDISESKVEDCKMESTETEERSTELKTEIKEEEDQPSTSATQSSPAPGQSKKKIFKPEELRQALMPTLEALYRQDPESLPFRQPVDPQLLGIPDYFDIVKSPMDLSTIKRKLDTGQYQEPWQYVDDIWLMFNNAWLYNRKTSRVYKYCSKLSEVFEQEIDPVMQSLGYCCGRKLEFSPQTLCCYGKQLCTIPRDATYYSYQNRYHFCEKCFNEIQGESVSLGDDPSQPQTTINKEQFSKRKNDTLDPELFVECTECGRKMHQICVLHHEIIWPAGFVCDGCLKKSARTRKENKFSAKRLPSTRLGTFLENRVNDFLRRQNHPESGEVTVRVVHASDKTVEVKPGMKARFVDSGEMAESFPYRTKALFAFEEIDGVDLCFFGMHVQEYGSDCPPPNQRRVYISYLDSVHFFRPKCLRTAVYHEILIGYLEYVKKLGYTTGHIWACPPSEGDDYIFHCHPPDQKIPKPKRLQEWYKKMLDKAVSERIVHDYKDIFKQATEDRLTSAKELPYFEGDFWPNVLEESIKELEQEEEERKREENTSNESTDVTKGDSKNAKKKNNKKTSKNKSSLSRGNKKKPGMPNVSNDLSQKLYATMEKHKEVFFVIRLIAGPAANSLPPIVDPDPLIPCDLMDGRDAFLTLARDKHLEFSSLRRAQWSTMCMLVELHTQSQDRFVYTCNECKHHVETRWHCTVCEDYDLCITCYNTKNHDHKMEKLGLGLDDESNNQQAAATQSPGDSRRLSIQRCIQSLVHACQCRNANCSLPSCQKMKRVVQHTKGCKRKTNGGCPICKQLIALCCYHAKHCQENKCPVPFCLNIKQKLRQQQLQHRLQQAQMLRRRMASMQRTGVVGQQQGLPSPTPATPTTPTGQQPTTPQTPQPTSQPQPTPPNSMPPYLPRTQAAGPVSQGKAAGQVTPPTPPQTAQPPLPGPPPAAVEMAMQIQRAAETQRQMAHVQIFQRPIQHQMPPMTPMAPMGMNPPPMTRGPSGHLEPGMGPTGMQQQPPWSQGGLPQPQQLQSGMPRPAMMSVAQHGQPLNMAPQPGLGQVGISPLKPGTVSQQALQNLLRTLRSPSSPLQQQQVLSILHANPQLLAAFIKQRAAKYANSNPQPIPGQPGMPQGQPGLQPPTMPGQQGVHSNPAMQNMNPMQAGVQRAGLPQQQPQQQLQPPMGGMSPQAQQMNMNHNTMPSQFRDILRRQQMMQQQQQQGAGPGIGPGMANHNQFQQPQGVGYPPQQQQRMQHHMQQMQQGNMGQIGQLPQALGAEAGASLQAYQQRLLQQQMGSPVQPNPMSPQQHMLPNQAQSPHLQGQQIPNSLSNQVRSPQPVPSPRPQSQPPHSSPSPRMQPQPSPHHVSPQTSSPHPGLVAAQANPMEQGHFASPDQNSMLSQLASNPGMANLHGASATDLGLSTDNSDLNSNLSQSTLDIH

increased acetylation in a distal region 2 kb downstream of the proximal promoter of the p21-LUC plasmid (in vitro chromatin immunoprecipitation with anti-acetyl-H4): 1.4 fold | increased acetylation near the 3' p53 binding site of the p21-LUC plasmid (in vitro chromatin immunoprecipitation with anti-acetyl-H4): 3.4 fold
Substance: Full-length human Flag-tagged p53 (native, unacetylated) (from UniProt P04637 1-393)
